Test results as given in the Human Domainome abundance scans (Beltran et al. 2025).
± gives the uncertainty stated by the source.

B1: Far upstream element-binding protein 1, residues 98 to 169; numbered along this chain, Q96AE4 (parent)
chain: RSVMTEEYKVPDGMVGFIIGRGGEQISRIQQESGCKIQIAPDSGGLPERSCMLTGTPESVQSAKRLLDQIVE

Variants of: B1
Test: abundance fitness (aPCA) (normalised: wild type 0, dead -1); higher = more abundant; growth selection in yeast, the domain comes from the species named
Conditions: Homo sapiens
For RSVMTEEYKVPDGMVGFIIGRGGEQISRIQQESGWKIQIAPDSGGLPERSCMLTGTPESVQSAKRLLDQIVE, the abundance fitness was -1.19 ± 0.053. With RSVMTEEYKVPDGMVGFIIGRGGEQISRIQQESGYKIQIAPDSGGLPERSCMLTGTPESVQSAKRLLDQIVE the abundance fitness was -1.09 ± 0.07. For RSVMTEEYKVPDGMVGFIIGRGGEQISRIQQESGCAIQIAPDSGGLPERSCMLTGTPESVQSAKRLLDQIVE, the abundance fitness was -0.018 ± 0.024. Work on RSVMTEEYKVPDGMVGFIIGRGGEQISRIQQESGCCIQIAPDSGGLPERSCMLTGTPESVQSAKRLLDQIVE yielded an abundance fitness of -0.031 ± 0.04. With RSVMTEEYKVPDGMVGFIIGRGGEQISRIQQESGCDIQIAPDSGGLPERSCMLTGTPESVQSAKRLLDQIVE the abundance fitness was -0.02 ± 0.042. RSVMTEEYKVPDGMVGFIIGRGGEQISRIQQESGCEIQIAPDSGGLPERSCMLTGTPESVQSAKRLLDQIVE gave an abundance fitness of -0.025 ± 0.031. RSVMTEEYKVPDGMVGFIIGRGGEQISRIQQESGCFIQIAPDSGGLPERSCMLTGTPESVQSAKRLLDQIVE gave an abundance fitness of -0.044 ± 0.053. With RSVMTEEYKVPDGMVGFIIGRGGEQISRIQQESGCGIQIAPDSGGLPERSCMLTGTPESVQSAKRLLDQIVE the abundance fitness was -0.058 ± 0.024. With RSVMTEEYKVPDGMVGFIIGRGGEQISRIQQESGCHIQIAPDSGGLPERSCMLTGTPESVQSAKRLLDQIVE the abundance fitness was -0.046 ± 0.051. Variant RSVMTEEYKVPDGMVGFIIGRGGEQISRIQQESGCIIQIAPDSGGLPERSCMLTGTPESVQSAKRLLDQIVE has an abundance fitness of -0.078 ± 0.056. For RSVMTEEYKVPDGMVGFIIGRGGEQISRIQQESGCLIQIAPDSGGLPERSCMLTGTPESVQSAKRLLDQIVE, the abundance fitness was -0.026 ± 0.027. In the case of RSVMTEEYKVPDGMVGFIIGRGGEQISRIQQESGCMIQIAPDSGGLPERSCMLTGTPESVQSAKRLLDQIVE, the abundance fitness is reported as -0.047 ± 0.039. In the case of RSVMTEEYKVPDGMVGFIIGRGGEQISRIQQESGCNIQIAPDSGGLPERSCMLTGTPESVQSAKRLLDQIVE, the abundance fitness is reported as -0.059 ± 0.043. For RSVMTEEYKVPDGMVGFIIGRGGEQISRIQQESGCPIQIAPDSGGLPERSCMLTGTPESVQSAKRLLDQIVE, the abundance fitness was -0.666 ± 0.041. Work on RSVMTEEYKVPDGMVGFIIGRGGEQISRIQQESGCQIQIAPDSGGLPERSCMLTGTPESVQSAKRLLDQIVE yielded an abundance fitness of -0.04 ± 0.034. Variant RSVMTEEYKVPDGMVGFIIGRGGEQISRIQQESGCRIQIAPDSGGLPERSCMLTGTPESVQSAKRLLDQIVE has an abundance fitness of -0.034 ± 0.024. In the case of RSVMTEEYKVPDGMVGFIIGRGGEQISRIQQESGCSIQIAPDSGGLPERSCMLTGTPESVQSAKRLLDQIVE, the abundance fitness is reported as -0.041 ± 0.028. Variant RSVMTEEYKVPDGMVGFIIGRGGEQISRIQQESGCTIQIAPDSGGLPERSCMLTGTPESVQSAKRLLDQIVE has an abundance fitness of -0.062 ± 0.031. Variant RSVMTEEYKVPDGMVGFIIGRGGEQISRIQQESGCVIQIAPDSGGLPERSCMLTGTPESVQSAKRLLDQIVE has an abundance fitness of -0.022 ± 0.027. Variant RSVMTEEYKVPDGMVGFIIGRGGEQISRIQQESGCWIQIAPDSGGLPERSCMLTGTPESVQSAKRLLDQIVE has an abundance fitness of -0.129 ± 0.029. With RSVMTEEYKVPDGMVGFIIGRGGEQISRIQQESGCYIQIAPDSGGLPERSCMLTGTPESVQSAKRLLDQIVE the abundance fitness was -0.149 ± 0.052. With RSVMTEEYKVPDGMVGFIIGRGGEQISRIQQESGCKAQIAPDSGGLPERSCMLTGTPESVQSAKRLLDQIVE the abundance fitness was -0.313 ± 0.03. RSVMTEEYKVPDGMVGFIIGRGGEQISRIQQESGCKCQIAPDSGGLPERSCMLTGTPESVQSAKRLLDQIVE gave an abundance fitness of -0.129 ± 0.042. RSVMTEEYKVPDGMVGFIIGRGGEQISRIQQESGCKDQIAPDSGGLPERSCMLTGTPESVQSAKRLLDQIVE showed an abundance fitness of -0.873 ± 0.07. RSVMTEEYKVPDGMVGFIIGRGGEQISRIQQESGCKEQIAPDSGGLPERSCMLTGTPESVQSAKRLLDQIVE showed an abundance fitness of -0.937 ± 0.055. RSVMTEEYKVPDGMVGFIIGRGGEQISRIQQESGCKFQIAPDSGGLPERSCMLTGTPESVQSAKRLLDQIVE gave an abundance fitness of -0.25 ± 0.055. For RSVMTEEYKVPDGMVGFIIGRGGEQISRIQQESGCKHQIAPDSGGLPERSCMLTGTPESVQSAKRLLDQIVE, the abundance fitness was -0.775 ± 0.094. Work on RSVMTEEYKVPDGMVGFIIGRGGEQISRIQQESGCKKQIAPDSGGLPERSCMLTGTPESVQSAKRLLDQIVE yielded an abundance fitness of -0.911 ± 0.08. RSVMTEEYKVPDGMVGFIIGRGGEQISRIQQESGCKLQIAPDSGGLPERSCMLTGTPESVQSAKRLLDQIVE gave an abundance fitness of -0.087 ± 0.028. Work on RSVMTEEYKVPDGMVGFIIGRGGEQISRIQQESGCKMQIAPDSGGLPERSCMLTGTPESVQSAKRLLDQIVE yielded an abundance fitness of -0.081 ± 0.039. RSVMTEEYKVPDGMVGFIIGRGGEQISRIQQESGCKNQIAPDSGGLPERSCMLTGTPESVQSAKRLLDQIVE gave an abundance fitness of -0.848 ± 0.083. With RSVMTEEYKVPDGMVGFIIGRGGEQISRIQQESGCKPQIAPDSGGLPERSCMLTGTPESVQSAKRLLDQIVE the abundance fitness was -0.679 ± 0.042. Variant RSVMTEEYKVPDGMVGFIIGRGGEQISRIQQESGCKQQIAPDSGGLPERSCMLTGTPESVQSAKRLLDQIVE has an abundance fitness of -0.911 ± 0.067. Variant RSVMTEEYKVPDGMVGFIIGRGGEQISRIQQESGCKRQIAPDSGGLPERSCMLTGTPESVQSAKRLLDQIVE has an abundance fitness of -1.05 ± 0.04. Work on RSVMTEEYKVPDGMVGFIIGRGGEQISRIQQESGCKSQIAPDSGGLPERSCMLTGTPESVQSAKRLLDQIVE yielded an abundance fitness of -0.788 ± 0.041. RSVMTEEYKVPDGMVGFIIGRGGEQISRIQQESGCKTQIAPDSGGLPERSCMLTGTPESVQSAKRLLDQIVE showed an abundance fitness of -0.48 ± 0.041. RSVMTEEYKVPDGMVGFIIGRGGEQISRIQQESGCKVQIAPDSGGLPERSCMLTGTPESVQSAKRLLDQIVE showed an abundance fitness of -0.038 ± 0.028.
